One test concerns A549 cells. Kind of test: A549 subcutaneous transplantation tumor model in CB17/SCID female mice. Format: in vivo. As to conditions: day 35; paclitaxel 20 mg/kg intraperitoneal twice per week for 4 weeks. How it is done: The experimental animals were CB17/SCID female mice, and A549 cells (5× 10^6) were subcutaneously inoculated into the mice to establish a subcutaneous transplantation tumor model. […] The groups each had 6 animals, and the animals in all the groups were subjected to intraperitoneal injection. […] The efficacy was evaluated based on tumor growth inhibition (TGI) (FIG. 9).

The target in test [1] is T1, human DKK1 antigen (Sino Biological, 10170-H08H) (human, UniProt O94907 32-266).
T1 chain: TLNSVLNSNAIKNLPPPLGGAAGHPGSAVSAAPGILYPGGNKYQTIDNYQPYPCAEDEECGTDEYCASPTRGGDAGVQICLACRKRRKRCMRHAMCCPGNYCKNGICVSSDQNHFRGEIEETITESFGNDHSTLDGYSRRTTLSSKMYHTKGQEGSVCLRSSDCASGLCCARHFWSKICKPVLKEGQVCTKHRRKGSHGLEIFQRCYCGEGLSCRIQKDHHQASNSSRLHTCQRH
Kind of test: ELISA binding; given as IC50. (An ELISA detects its analyte on a solid surface through an enzyme-linked reagent.)

The target in test [2] is T1, human DKK1 antigen (Sino Biological, …). Kind of test: ELISA blocking of DKK1-LRP6.
Test [3] addresses T2, human DKK1 antigen (Sino Biological, 10170-H08H) (human, UniProt O94907 32-266).
T2 construct: also called huDKK1; hDKK1
T2 sequence (looked up): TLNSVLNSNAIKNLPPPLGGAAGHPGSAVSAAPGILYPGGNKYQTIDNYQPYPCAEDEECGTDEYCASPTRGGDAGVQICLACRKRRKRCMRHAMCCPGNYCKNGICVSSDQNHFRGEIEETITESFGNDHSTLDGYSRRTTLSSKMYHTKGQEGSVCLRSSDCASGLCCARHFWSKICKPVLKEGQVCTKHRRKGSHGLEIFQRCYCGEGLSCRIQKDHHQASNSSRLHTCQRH
In words: ELISA, coated human DKK1. How it is done: (§1) Detection of the binding activity of the chimeric antibodies for human DKK1 by ELISA: After the plate was coated with 2.0 μg/mL human DKK1 antigen (Sino Biological, 10170-H08H) for 90 min and then blocked with 2% BSA for 90 min, the gradiently diluted anti-DKK1 chimeric antibodies and positive control antibody DKN-01 (starting at 1 μg/mL, diluted in a 2.5-fold gradient to 1.64 ng/ml, with a total of 8 concentrations) were added, and the mixture was incubated for 60 min. After the plate was washed, the 5000-fold diluted HRP-conjugated goat anti-human IgG (Fc specific) (Sigma, A0170) secondary antibody was added for incubation, and 0.1 mg/mL TMB (Sigma, T2885) was added for color development. Finally, the reaction was stopped with a 2 M hydrochloric acid solution. The plate was read at 450 nm/620 nm using a Thermo Scientific microplate reader, and the EC50 values of the chimeric antibodies (FIG. 3) were obtained by fitting using a four-parameter logistic regression (4PL) model.

Test [4] addresses T3, human DKK1 (Homo sapiens, UniProt O94907).
T3 construct: purchased Sino Biological 10170-H08H
T3 sequence (O94907 32-266): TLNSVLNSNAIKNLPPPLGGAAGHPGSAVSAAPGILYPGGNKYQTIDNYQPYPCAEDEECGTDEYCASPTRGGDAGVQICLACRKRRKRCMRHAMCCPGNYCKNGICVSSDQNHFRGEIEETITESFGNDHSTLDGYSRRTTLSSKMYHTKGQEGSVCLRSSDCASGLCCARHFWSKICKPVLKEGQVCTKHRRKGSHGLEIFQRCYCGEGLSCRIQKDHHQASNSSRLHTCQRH
Kind of test: Luciferase reporter gene assay in 293 TOP cells with Wnt3a and human DKK1 (recovery of Wnt signaling). It is filed as cell-based. Conditions: screening at protein and cellular level. As to the method:
The cellular biological activity of the DKK1 antibodies was tested using target cells 293 TOP overexpressing LRP5/6 and comprising the luciferase reporter system and recombinant Wnt3a (R&D systems, cat #5036-WN), as well as human DKK1 (Sino Biological, cat #10170-H08H) protein. The target cells 293 TOP were placed into a 96-well flat-bottomed white plate (corning, cat #3917) at 50,000 cells per well for incubation overnight. The supernatant was then discarded, and the gradiently diluted antibodies to be tested were each added for pre-incubation at 37° C. for 0.5 h. After the pre-incubation was completed, the diluted Wnt3a (R&D systems, cat #5036-WN) and human DKK1 protein, at working concentrations of 0.05 μg/mL and 0.1 μg/mL, respectively, were added into the mixture containing the cells and antibody for co-incubation at 37° C. for 6-8 h. Finally, the luciferase substrate One-Lite (Vazyme, cat #DD1203-03-AB) was added and the chemiluminescence values of the hybridoma antibodies were measured.
The cellular biological activity of the hDKK1 chimeric antibodies was tested using target cells 293 TOP overexpressing LRP5/6 and comprising the luciferase reporter system and recombinant Wnt3a (R&D systems, cat #5036-WN), as well as human DKK1 (Sino Biological, cat #10170-H08H) protein.
The target cells 293 TOP were placed into a 96-well flat-bottomed white plate (corning, cat #3917) at 50,000 cells per well for incubation overnight. […] Finally, the luciferase substrate One-Lite (Vazyme, cat #DD1203-03-AB) was added and the chemiluminescence values of the chimeric antibodies were measured (FIGS. 5A-5C).
The cellular biological activity of the DKK1 antibodies was tested using target cells 293 TOP overexpressing LRP5/6 and comprising the luciferase reporter system and recombinant Wnt3a (R&D systems, cat #5036-WN), as well as human DKK1 (Sino Biological, cat #10170-H08H) protein. […] Finally, the luciferase substrate One-Lite (Vazyme, cat #DD1203-03-AB) was added and the chemiluminescence values of the humanized antibodies were measured. […]
(In general: In a reporter assay the amount or activity of a reporter protein is the signal.)

Test [5] has as its target T3, human DKK1. In words: Binding of antibodies to human DKK1 by ELISA. As to conditions: chimeric antibodies, compared among each other. As to the method:
as §1
Detection of the binding of the humanized antibodies to DKK1 by ELISA: The plate was coated with 2.0 μg/mL human DKK1 antigen (Sino Biological, 10170-H08H) for 90 min and then blocked with 2% BSA for 90 min. After the plate was washed, the gradiently diluted anti-DKK1 humanized antibodies (starting at 1 μg/mL, diluted in a 10-fold gradient to 1 ng/ml, with a total of 4 concentrations) were each added, and the mixture was incubated for 60 min. After the plate was further washed, the 5000-fold diluted HRP-conjugated goat anti-human IgG (Fc specific) (Sigma, A0170) secondary antibody was added for incubation for 30 min, and 0.1 mg/mL TMB (Sigma, T2885) was added at 100 μL per well for color development for 10 min. Finally, a 2 M hydrochloric acid solution was added at 50 μL per well to stop the reaction. The plate was read at 450 nm/620 nm using a Thermo Scientific microplate reader. The EC50 values of the humanized antibodies were obtained by fitting using a four-parameter logistic regression (4PL) model.

In test [6] the target is T1, human DKK1 antigen (Sino Biological, …). In words: ELISA binding.
For test [7] the target is unchanged. In words: ELISA binding.
Test [8] has the same target. Kind of test: ELISA blocking of DKK1-LRP6.

By EC50 is commonly meant the midpoint of the concentration-response curve. Lower therefore signals an effect from little substance. For orientation: IC50 means the concentration that inhibits the measured activity by half.

Read-outs that look alike come from different tables or passages of the source.

As to `CC(=O)O[C@H]1C(=O)[C@@]2(C)[C@H]([C@H](OC(=O)c3ccccc3)[C@]3(O)C[C@H](OC(=O)[C@H](O)[C@@H](NC(=O)c4ccccc4)c4ccccc4)C(C)=C1C3(C)C)[C@]1(OC(C)=O)CO[C@@H]1C[C@@H]2O` [paclitaxel, reference compound], the “tumor growth inhibition (TGI)” value in the test with A549 cells was 60.48%.

B1: chimeric antibody chi-8 (antibody, human IgG4 S228P, kappa, V domains shown)
VH: EVQLQQSGPELVKPGASVKIFCKTSGYTFTENTMHWVKQTHGKSLEWIGGINPHKGGTSYNQKFKGKATLTVDKSSSTACMELRSLTSEDSTVYYCARDWLGAMDYWGQGTSVTVSP
VL: ETTVTQSPASLSMAIGEKVTIRCITSTDIDDDMNWYQQKPGEPPKLLISEGNTLRPGVPSRFSSSGYGTDFVFTIENMLSEDVADYYCLQSDNLPYTFGGGTKLEIKR
notes: hIgG4 heavy constant region and human kappa constant region; also called No. 2 chimeric antibody molecule
The molecule B1 yielded an EC50 in test [1] of 0.0434 µg/mL. The IC50 in [2] was 0.309 µg/mL. Also, the binding result in [3] is “binds”.

B2: chimeric antibody chi-1 (antibody, human IgG4 S228P, kappa, V domains shown)
VH: EVQLQQSGPELVKPGASVRISCKTSGYTFTEYTMHWVKQSHGKSLEWIGVIDPSNGDTSYNQKFKGRATLTVDKSSSTAYMDLRSLTSEDSALYYCSSTTGPWFACWGQGTLVTVSA
VL: DIQMTQTTSSLSASLGDRVTINCRASQDISNYLNWYQQKPDGTVKLLIYYKSRLHSGVPTRFSGSGSGTDFSLTISNLVQEDIATYFCQQVHTLPPTFGGGTKLEIKR
notes: hIgG4 heavy constant region and human kappa constant region; also called No. 1 chimeric antibody molecule
Molecule B2 gave an EC50 in test [1] of 0.0238 µg/mL. Inhibition in [2] was half-maximal at 0.355 µg/mL (IC50). Also, the binding result in test [3] is on record as “binds”.

B3: chi-15: chimeric antibody 3VH+3VL (SEQ ID NO: 41/42) (antibody, V domains shown)
VH: MGWNCFILFLVATATGVHSQVQLQQPGAELVKPGASVKMSCKASGYTFTSYNMLWVKQTPGQGLEWIGVIFPGNGDTSYNPKFKGKAALTADKSSSTAYMQLSSLTSEDSAVYYCARDGYPSMDYWGQGTSVTVSS
VL: MLSLAPLLSLLLLCVSDSRAETIVTQSPASLSVATGEKVTIRCITSTDIDDDMNWYQQKPGEPPKLLISEGNSLRPGVPSRFSSSGYGTDFVFTIENTLSEDVADYYCLQFNNMPLTFGAGTKLELK
Consider B3, for which the “in vitro activity in the screening of the chimeric antibodies of Example 4” value (“in vitro activity in the screening” below) with human DKK1 [4] is given as “best in vitro activity”. Also, the “relative binding activity for human DKK1 (ELISA)” value (from here on “relative binding activity”) with human DKK1 [5] is “superior activity”.

B4: chi-21 (antibody, V domains shown)
VH: QVQLQQPGAELVKPGASVKMSCKASGYTFTSYNMLWVKQTPGQGLEWIGVIFPGNGDTSYNPKFKGKAALTADKSSSTAYMQLSSLTSEDSAVYYCARDGYPSMDYWGQGTSVTVSS
VL: QIVLTQSPVIMSASPGEKVTMTCSASSSVSYMYWYQQKPGSSPRLLIYDTSNLASGVPVRFSGSGSGTSYSLTISRMEAEDAATYYCQQWSSYPPALTFGAGTKLELK
With B4, the EC50 in test [6] turned out to be 0.816 µg/mL. The molecule further had an IC50 in test [2] of 0.92 µg/mL.

B5: chimeric antibody chi-15 (antibody, human IgG4 S228P, kappa, V domains shown)
VH: QVQLQQPGAELVKPGASVKMSCKASGYTFTSYNMLWVKQTPGQGLEWIGVIFPGNGDTSYNPKFKGKAALTADKSSSTAYMQLSSLTSEDSAVYYCARDGYPSMDYWGQGTSVTVSS
VL: ETIVTQSPASLSVATGEKVTIRCITSTDIDDDMNWYQQKPGEPPKLLISEGNSLRPGVPSRFSSSGYGTDFVFTIENTLSEDVADYYCLQFNNMPLTFGAGTKLELKR
notes: hIgG4 heavy constant region and human kappa constant region; also called No. 3 chimeric antibody molecule
Regarding B5, the EC50 worked out at 0.0238 µg/mL in [6] and 0.0244 µg/mL in test [7]. Further, the figures for the IC50 in [8] and in test [2] were 0.258 µg/mL and 0.0992 µg/mL, respectively. Also, the binding result in test [3] is reported as “binds”.

B6: chi-1: chimeric antibody 1VH+1VL (SEQ ID NO: 37/38) (antibody, V domains shown)
VH: MGWSWIFLFLLSGTAGVLSEVQLQQSGPELVKPGASVRISCKTSGYTFTEYTMHWVKQSHGKSLEWIGVIDPSNGDTSYNQKFKGRATLTVDKSSSTAYMDLRSLTSEDSALYYCSSTTGPWFACWGQGTLVTVSA
VL: MSSAQFLGLLLLCFQGTRCDIQMTQTTSSLSASLGDRVTINCRASQDISNYLNWYQQKPDGTVKLLIYYKSRLHSGVPTRFSGSGSGTDFSLTISNLVQEDIATYFCQQVHTLPPTFGGGTKLEIK
As for B6, the “in vitro activity in the screening” value in the test with human DKK1 [4] is “best in vitro activity”. In the test with human DKK1 [5], the “relative binding activity” value is on record as “superior activity”.

B7: chi-8: chimeric antibody 2VH+2VL (SEQ ID NO: 39/40) (antibody, V domains shown)
VH: MGWSWIFLFLLSGTAGVLSEVQLQQSGPELVKPGASVKIFCKTSGYTFTENTMHWVKQTHGKSLEWIGGINPHKGGTSYNQKFKGKATLTVDKSSSTACMELRSLTSEDSTVYYCARDWLGAMDYWGQGTSVTVSP
VL: MFSLALLLSLLLLCVSDSRAETTVTQSPASLSMAIGEKVTIRCITSTDIDDDMNWYQQKPGEPPKLLISEGNTLRPGVPSRFSSSGYGTDFVFTIENMLSEDVADYYCLQSDNLPYTFGGGTKLEIK
As for B7, the “in vitro activity in the screening” value with human DKK1 [4] is “best in vitro activity”. The “relative binding activity” value in the test with human DKK1 [5] is listed as “superior activity”.

Values taken from patent US20250122271A1, “ANTI-DKK1 ANTIBODY, PHARMACEUTICAL COMPOSITION THEREOF, AND USE THEREOF” (SHANGHAI JUNSHI BIOSCIENCES CO., LTD., priority 2022, published 2025).
